Assay [1] deals with T1, peptide C-YMRNSKY (also: immobilized to BSA or ovalbumin).
T1 construct: Printed as 'C-YMRNSKY'; the leading C is read as an added cysteine
T1 peptide: CYMRNSKY
Kind of assay: peptide ELISA, peptide on BSA or ovalbumin coated. As for the experimental part: Binding of the rabbit monoclonal antibody was detected by incubation with goat anti rabbit IgG-Peroxidase (Sigma; dilution 1:5000) and subsequent detection of the converted Peroxidase-substrate TMBone at a wavelength of 450 nm in an ELISA reader (FIG. 13).
Binding of the rabbit monoclonal antibody was detected by incubation with goat anti rabbit IgG-Peroxidase (Sigma; dilution 1:5000) and subsequent detection of the converted Peroxidase-substrate TMBone at a wavelength of 450 nm in an ELISA reader (FIG. 14).

The target of assay [2] is T2, APG707 (LIGHT-RB69) (human).
T2 construct: Structurally related TNF-superfamily protein with the same trimerisation scaffold as APG296; also called human LIGHT (APG707)
T2 chain: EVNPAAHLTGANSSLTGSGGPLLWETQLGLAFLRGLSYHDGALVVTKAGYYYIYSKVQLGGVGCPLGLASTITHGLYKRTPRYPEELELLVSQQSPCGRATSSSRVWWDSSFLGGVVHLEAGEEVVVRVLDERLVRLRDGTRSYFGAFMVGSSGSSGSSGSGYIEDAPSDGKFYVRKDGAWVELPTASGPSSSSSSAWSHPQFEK
The assay can be described thus: competition ELISA, APG296 coated, APG707 as soluble competitor. The protocol:
For the competition ELISA, 96-well microtiter plates were coated with 10 μg/ml APG296 (CD95L-RB69). […] Binding of the rabbit monoclonal antibodies was detected by incubation with goat anti rabbit IgG-Peroxidase (Sigma; dilution 1:5000) and subsequent detection of the converted Peroxidase-substrate TMBone at a wavelength of 450 nm in an ELISA reader (FIG. 6).
In general terms: An ELISA detects its analyte on a solid surface through an enzyme-linked reagent.

Assay [3] deals with T3, epitope-comprising peptide YMRNSKYPQD (also: coupled to BSA).
T3 peptide: YMRNSKYPQD
Kind of assay: QCM (Attana A100), peptide-BSA immobilized, antibody as analyte. The protocol: The A100 allows to investigate molecular interactions in real-time based on the Quartz Crystal Microbalance (QCM) technique. For this purpose, the respective epitope comprising peptide was coupled to BSA and subsequently immobilized to the surface of a carboxyl-activated QCM-chip. […] Binding (kₒₙ) and dissociation (koff) was analyzed in real time, and the respective KD was calculated (see table in FIG. 16).

In assay [4] the target is T4, epitope-comprising peptide YMRNSKYPQD (also: coupled to BSA).
T4 peptide: YMRNSKYPQD
Kind of assay: QCM; immobilized BSA-coupled peptide.

In assay [5] the target is T5, APG296 (human CD95L-RB69) (human).
T5 construct: also called recombinant CD95L; human CD95L (APG296)
T5 chain: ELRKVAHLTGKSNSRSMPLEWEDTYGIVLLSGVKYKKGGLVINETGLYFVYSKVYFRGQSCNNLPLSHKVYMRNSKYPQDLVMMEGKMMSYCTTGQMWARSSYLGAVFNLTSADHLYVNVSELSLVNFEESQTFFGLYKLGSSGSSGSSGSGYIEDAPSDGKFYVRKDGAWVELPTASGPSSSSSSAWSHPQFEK
The assay can be described thus: ELISA, APG296 coated.

Assay [6] concerns the target T6, APG293 (human CD95L-T4) (human).
T6 chain: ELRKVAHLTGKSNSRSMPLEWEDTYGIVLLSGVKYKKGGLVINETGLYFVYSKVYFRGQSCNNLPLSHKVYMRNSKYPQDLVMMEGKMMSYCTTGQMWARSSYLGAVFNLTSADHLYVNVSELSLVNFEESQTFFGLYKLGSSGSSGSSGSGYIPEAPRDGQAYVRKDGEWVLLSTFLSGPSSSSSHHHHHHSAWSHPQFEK
The assay can be described thus: cell-based or functional assay.

Experimental findings from patent publication US20180208664A1 (APOGENIX, published 2018) are described below.

Ends that are not written are not given here.

The Kd is the equilibrium constant for the complex coming apart.

B1: rabbit monoclonal anti-CD95L antibody clone 119-4 (antibody, V domains shown)
VH: QSLEESGGDLVKPGGTLTLTCTTSGFSFSDHYWMCWVRQAPGKGLEWIACIYTADSDSYYASWAKGRFTISKTSSTTVTLQMTSLTAADTATYFCARNGAYAGGPYGDLWGPGTLVTVSS
VL: DIVMTQTPSSVEAAVGGTVTIKCQASQSIRTSLVWYQQKPGQPPKLLIYKASDLPSGVPSRFKGSGSGTQFTLTISDLECADAATYYCQSYDFRDTINNGHSFGGGTEVVVKG
notes: Rabbit monoclonal IgG from a hybridoma subclone, detected with anti-rabbit IgG; Only VH and VL are tied to the clone by name; also called mAb119-4
As for B1, the binding result in assay [1] was “no binding (tested: 2 µg/ml)”; in assay [2], “no binding (tested: 100 µg/ml)”; in assay [3] it was “binds”. The molecule also gave a Kd in assay [4] of 1.2 nM.

B2: rabbit monoclonal anti-CD95L antibody clone 145-12 (antibody, V domains shown)
VH: QSLEESGGDLVKPGASLTLTCTASGFSFSSGYDMCWVRQAPGKGLEWIACIDTDNDATYYASWAKGRFTISKPSSTTVLLQITSLTAADTATYFCATTHGDYVAFKLWGPGTLVTVSS
VL: QVLTQTASSVSAAVGGTVTINCQSSQSVYKNNDLSWYQQKPRQPPKLLIYQASKLASGVPSRFKGSGSGTQFTLTIGDLECDDGATYYCAGGYTASIYAFGGGTEVVVKG
notes: Rabbit monoclonal IgG from a hybridoma subclone; Only VH and VL are tied to the clone by name; also called mAB145-12; mAb145-12
B2: the binding result in assay [5] is reported as “binds”. In assay [6], the “EC50, Assay 1: antagonism of CD95L-T4-induced apoptosis on Jurkat A3 cells” value amounted to 0.187 µg/mL; the “EC50, Assay 2: antagonism of CD95L-T4-induced apoptosis on Jurkat A3 cells” value was 0.198 µg/mL; the “EC50, Assay 3: antagonism of CD95L-T4-induced apoptosis on Jurkat A3 cells” value came to 0.225 µg/mL; the “EC50, Assay 4: antagonism of CD95L-T4-induced apoptosis on Jurkat A3 cells” value came out at 0.192 µg/mL. In addition, the “EC50, Mean: antagonism of CD95L-T4-induced apoptosis on Jurkat A3 cells” value in assay [6] was found to be 0.201 µg/mL. For the same molecule, the binding result in assay [1] is “no binding (tested: 2 µg/ml)”. In assay [2], the binding result is “no binding (tested: 100 µg/ml)”. The binding result in assay [3] was “binds”. This molecule had a Kd in assay [4] of 7.22 nM.
